Reference: patent US6426335, “Vascular endothelial growth factor (VEGF) nucleic acid ligand complexes” (Gilead Sciences, Inc.)

B1: t2c (ssRNA)
RNA: GAACCGAUGGAAUUUUUGGACGCUCT
modifications: 2'-F pyrimidines; 3'-3' dT cap (N26) [26 (3'-3' dT cap); all C/U 2'-F]
B2: t44 (ssRNA)
RNA: GCGGAAUCAGUGAAUGCUUAUACAUCCGCT
modifications: 2'-F pyrimidines; 3'-3' dT cap (N30) [30 (3'-3' dT cap); all C/U 2'-F]
B3: t2d (ssRNA)
RNA: AACCGAUGGAAUUUUUGGACGCUT
modifications: 2'-F pyrimidines; 3'-3' dT cap (N24) [24 (3'-3' dT cap); all C/U 2'-F]
B4: t44c (ssRNA)
RNA: GAAUCAGUGAAUGCUUAUACAUCT
modifications: 2'-F pyrimidines; 3'-3' dT cap (N24) [24 (3'-3' dT cap); all C/U 2'-F]
B5: NX278-Liposome (mixed)
mixed: TTTTACCCUGAUGGUAGACGCCGGGGUGTTTTT
modifications: as NX278, embedded in DSPC:cholesterol liposome
B6: NX213 (mixed)
mixed: B5 mixed
modifications: PS DNA T at 1-4 and 29-33; 2'-OMe at 5,13,16,17,20,23-26,28; 2'-NH2 at 6-9,12,15,19,21,22,27

Tests used:
[1] = target: T1, VEGF165 (Homo sapiens, UniProt P15692-4 P15692-4:27-191); test: filter; 37C; details: tags: R&D Systems carrier-free, expressed in Sf21 insect cells; chain copies: homodimer (inferred)
T1 sequence (P15692 other isoform, or with tags, fused parts or gaps): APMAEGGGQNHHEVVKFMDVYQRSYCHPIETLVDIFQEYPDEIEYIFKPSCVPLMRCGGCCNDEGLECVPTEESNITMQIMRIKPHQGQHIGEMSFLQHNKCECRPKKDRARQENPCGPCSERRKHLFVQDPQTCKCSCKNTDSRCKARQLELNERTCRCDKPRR
Method: (§1) Nucleic Acid Ligands radiolabeled during transcription by incorporation of α-[^32P]-labeled NTPs, or after synthesis using γ-[^32P]-ATP and T4 polynucleotide kinase, were incubated in low concentration (between 20 and 71 pM) with varying concentrations of VEGF or other growth factors at 37° C. for 15 minutes. Incubations were in TBS, PBS, or HEPES-buffered saline (HBS), pH 7.4, with or without the addition of supplemental divalent cations. Samples were passed through prewashed 0.45μ Type HA filters (Millipore) followed by a 5–10 ml wash with binding buffer. Filters were immersed in scintillant and counted to quantitate the amount of protein-bound RNA retained by each filter. The equilibrium dissociation constant (K_D) of Nucleic Acid Ligand binding to a specific protein was calculated from the data points as described in Green et al. (1996) Biochem. 35:14413–14424.

[2] = target: T1, VEGF165; test: filter; 37C; Ca2+ dependent; details: tags: R&D Systems carrier-free, expressed in Sf21 insect cells; chain copies: homodimer (inferred)
Method: as §1

[3] = target: T1, VEGF165; test: EMSA; competition EMSA; apparent affinity; VEGF isoform not stated; details: tags: R&D Systems carrier-free, expressed in Sf21 insect cells; chain copies: homodimer (inferred)
Method: The binding affinities of the unmodified Nucleic Acid Ligand (NX213, open circle), its dialkyl glycerol modified analog (NX278, open diamond) and liposomal NX278 (NX278-L, open square), along with the sequence scrambled (sc) controls (scNX213, closed circle; scNX278, closed diamond; and scNX278-L, closed square) were determined by a competition electrophoreticmobility shift assay. NX213 is 5'-TsTsTsTs mAaCaC aCaUrG rAaUmG rGaUmA mGrAaC mGaCaC mGmGmG mGaUmG TsTsTsTsT-3' and scNX213 is (SEQ ID NO:1) 5'-TsTsTsTs mGaUaC mGmGaU mAaCrG mGrAmG aUmGrG rAaCnC mGaUaC mAaCmG TsTsTsTsT-3' (SEQ ID NO:4) ^32P 5=end-labeled NX-213 (1.5 nM) was incubated in binding buffer (phosphate buffered saline with 0.01% human serum albumin) at 37° C. for 20 min in the presence of VEGF (0.33 nM) and competitor oligonucleotide(5 pM-0.33 µM). The ^32p NX-213/VEGF complex was resolved from the free ^32p NX-213 by electrophoresison 8% polyacrylamide gel (19:1 acrylamide:bisacrylamide, Tris-borate, 89 mM, 1 mM EDTA as the running buffer). The intensity of the band corresponding to ^32P NX-213/VEGF complex at varying competitor concentrations was quantitated by phosphorimager analysis. Data normalized for the amount of complex formed in the absence of competitor were fitted by the least squares method to the competition binding equation. […]

[4] = target: T1, VEGF165; test: described previously, quoted for comparison; details: tags: R&D Systems carrier-free, expressed in Sf21 insect cells; chain copies: homodimer (inferred); label: 32P 5' end

Row | Binder | Kd [1] | further results
1 | B1 | 0.2 nM | –
2 | B2 | – | Kd [2]: 0.01 nM
3 | B3 | 20 nM | –
4 | B4 | 2 nM | –
5 | B5 | – | binding signal [3]: 3 fold lower than NX278
6 | B6 | – | Kd [4]: 0.14 nM
